Data reported in PMC7615141, “ADAMTS-7 modulates atherosclerotic plaque formation by degradation of TIMP-1” (Circulation research, 2023).

B1: ADAMTS-7-FLAG (enzyme, human, UniProt Q9UKP4 28-1686, looked up)
chain: APGPAPGRATEGRAALDIVHPVRVDAGGSFLSYELWPRALRKRDVSVRRDAPAFYELQYRGRELRFNLTANQHLLAPGFVSETRRRGGLGRAHIRAHTPACHLLGEVQDPELEGGLAAISACDGLKGVFQLSNEDYFIEPLDSAPARPGHAQPHVVYKRQAPERLAQRGDSSAPSTCGVQVYPELESRRERWEQRQQWRRPRLRRLHQRSVSKEKWVETLVVADAKMVEYHGQPQVESYVLTIMNMVAGLFHDPSIGNPIHITIVRLVLLEDEEEDLKITHHADNTLKSFCKWQKSINMKGDAHPLHHDTAILLTRKDLCAAMNRPCETLGLSHVAGMCQPHRSCSINEDTGLPLAFTVAHELGHSFGIQHDGSGNDCEPVGKRPFIMSPQLLYDAAPLTWSRCSRQYITRFLDRGWGLCLDDPPAKDIIDFPSVPPGVLYDVSHQCRLQYGAYSAFCEDMDNVCHTLWCSVGTTCHSKLDAAVDGTRCGENKWCLSGECVPVGFRPEAVDGGWSGWSAWSICSRSCGMGVQSAERQCTQPTPKYKGRYCVGERKRFRLCNLQACPAGRPSFRHVQCSHFDAMLYKGQLHTWVPVVNDVNPCELHCRPANEYFAEKLRDAVVDGTPCYQVRASRDLCINGICKNVGCDFEIDSGAMEDRCGVCHGNGSTCHTVSGTFEEAEGLGYVDVGLIPAGAREIRIQEVAEAANFLALRSEDPEKYFLNGGWTIQWNGDYQVAGTTFTYARRGNWENLTSPGPTKEPVWIQLLFQESNPGVHYEYTIHREAGGHDEVPPPVFSWHYGPWTKCTVTCGRGVQRQNVYCLERQAGPVDEEHCDPLGRPDDQQRKCSEQPCPARWWAGEWQLCSSSCGPGGLSRRAVLCIRSVGLDEQSALEPPACEHLPRPPTETPCNRHVPCPATWAVGNWSQCSVTCGEGTQRRNVLCTNDTGVPCDEAQQPASEVTCSLPLCRWPLGTLGPEGSGSGSSSHELFNEADFIPHHLAPRPSPASSPKPGTMGNAIEEEAPELDLPGPVFVDDFYYDYNFINFHEDLSYGPSEEPDLDLAGTGDRTPPPHSHPAAPSTGSPVPATEPPAAKEEGVLGPWSPSPWPSQAGRSPPPPSEQTPGNPLINFLPEEDTPIGAPDLGLPSLSWPRVSTDGLQTPATPESQNDFPVGKDSQSQLPPPWRDRTNEVFKDDEEPKGRGAPHLPPRPSSTLPPLSPVGSTHSSPSPDVAELWTGGTVAWEPALEGGLGPVDSELWPTVGVASLLPPPIAPLPEMKVRDSSLEPGTPSFPTPGPGSWDLQTVAVWGTFLPTTLTGLGHMPEPALNPGPKGQPESLSPEVPLSSRLLSTPAWDSPANSHRVPETQPLAPSLAEAGPPADPLVVRNAGWQAGNWSECSTTCGLGAVWRPVRCSSGRDEDCAPAGRPQPARRCHLRPCATWHSGNWSKCSRSCGGGSSVRDVQCVDTRDLRPLRPFHCQPGPAKPPAHRPCGAQPCLSWYTSSWRECSEACGGGEQQRLVTCPEPGLCEEALRPNTTRPCNTHPCTQWVVGPWGQCSGPCGGGVQRRLVKCVNTQTGLPEEDSDQCGHEAWPESSRPCGTEDCEPVEPPRCERDRLSFGFCETLRLLGRCQLPTIRTQCCRSCSPPSHGAPSRGHQRVARR
notes: ADAMTS-7, human; also called ADAMTS-7-FLAG-cryptate; TS7-FLAG-Crypt; source: HEK293, transfected, in lysate

Tests used:
[1] = target: T1, TIMP-1-HA (tissue inhibitor of metalloproteinases 1 with HA tag) (human, UniProt P01033 24-207); test: AlphaScreen or HTRF; the pair ADAMTS-7-FLAG and TIMP-1-HA in the competition experiment (lysates; 0 ng untagged TIMP-1 as reference); 665/620 nm ratio; seven independent experiments; details: partners not purified
T1 construct: source: HEK293, transfected, in lysate; also in the supernatant
T1 sequence (P01033 24-207): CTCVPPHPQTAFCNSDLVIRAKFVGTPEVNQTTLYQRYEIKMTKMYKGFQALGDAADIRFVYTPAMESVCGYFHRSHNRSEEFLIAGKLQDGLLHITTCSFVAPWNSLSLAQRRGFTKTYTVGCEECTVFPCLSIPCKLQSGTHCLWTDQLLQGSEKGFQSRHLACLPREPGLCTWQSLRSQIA

[2] = target: T1, TIMP-1-HA (tissue inhibitor of …); test: AlphaScreen or HTRF; time-resolved FRET; lysates of HEK293 cells overexpressing ADAMTS-7-FLAG and TIMP-1-HA incubated with anti-FLAG-cryptate and anti-HA-d2 antibodies; excitation 337 nm; 665/620 nm ratio as readout; details: partners not purified
[3] = target: B1; test: AlphaScreen or HTRF; competition in the time-resolved FRET assay: untagged recombinant TIMP-1 (400 or 800 ng) added to ADAMTS-7-FLAG and TIMP-1-HA in lysates; 665/620 nm ratio; seven independent experiments; details: one partner purified

FRET ratio (665/620) with 0 ng untagged TIMP-1 [1]	FRET ratio (665/620) [2]	FRET ratio (665/620) of ADAMTS-7-FLAG with TIMP-1-HA in the presence of 400 ng untagged TIMP-1 [3]	FRET ratio (665/620) of ADAMTS-7-FLAG with TIMP-1-HA in the presence of 800 ng untagged TIMP-1 [3]	Binder
4950 665/620 ratio	5480 665/620 ratio			B1
		4420 665/620 ratio	3570 665/620 ratio	untagged, recombinant TIMP-1 (natural protein, The supplier may be named in the Supplemental Material; also called untagged TIMP-1; source: recombinant, untagged) not shown
